Target: T1, peptide on HLA-C*06:02 (human)
T1 peptide: TRATKMQVI
Experiment: activation reporter or marker

B1: TCR-TRAT (TCR, V domains shown)
Valpha: GEDVEQSLFLSVREGDSSVINCTYTDSSSTYLYWYKQEPGAGLQLLTYIFSNMDMKQDQRLTVLLNKKDKHLSLRIADTQTGDSAIYFCAESSNLSGNTPLVFGKGTRLSVIA
Vbeta: AAGVIQSPRHLIKEKRETATLKCYPIPRHDTVYWYQQGPGQDPQFLISFYEKMQSDKGSIPDRFSAQQFSDYHSELNMSSLELGDSALYFCASGLAGITGELFFGEGSRLTVL
B1: recognises.

Reference: patent US20200317791A1 (published 2020)
